In patent US20250381223A1 (UTC THERAPEUTICS SHANGHAI, published 2025):

B1: huVH5huVL3 (antibody, human IgG1, kappa, V domains shown)
VH: QVQLQESGPGLVKPSETLSLTCTVSGFSISDYGVHWIRQPPGKGLEWIGVIWAGGGTNYNPSLKSRVTISVDTSKNQVSLKLSSVTAADTAVYYCARDKGYSYYYSMDYWGQGTTVTVSS
VL: DIQLTQSPSSLSASVGDRVTITCRASESVEYYVTSLMQWYQQKPGKAPKLLIFAASNVESGVPSRFSGSGSGTDFTLTISSLQPEDFATYYCQQSRKVPYTFGGGTKLEIKR
B2: anti-CD123 scFv-C18 (scFv)
scFv: QSALTQPASVSGSPGQSITISCTGTSSDVGGYNYVSWYQQHPGKAPKLMIYDVSNRPSGVSNRFSGSKSGNTASLTISGLQAEDEADYYCSSYTSSSTLFVFGTGTELTVLGGGGSGGGGSGGGGSQVQLQESGPGLVKPSQTLSLTCTVSGGSISSGDYYWSWIRQSPGKGLEWIGYIHSTGTTYYNPSLKSRLTISLDTSKNQFSLKLNSVTAADTAVYYCARGGVGTIFNYWGQGTLVTVSS
notes: On mRNA-electroporated T cells as CAR
B3: anti-CD123 scFv-C6 (scFv)
scFv: SYELTQPPSVSVSPGQTARIPCSGADLGDQYVSWYQHQPGQSPLLVIYEDDKRPSGIPERFSGSNSGNTATLTISGTQAMDEADYYCQAWDGNAAIFGGGTKLTVLGGGGSGGGGSGGGGSQVQLVQSGGGSVQPGGSLRLSCAASGFTFTRYSMNWVRQAPGKGLEWVSYISSSSSTIYYADSVKGRFTISRDNAKNSLYLQMNSLRDEDTAVYYCARDGYGGNSDYYGMDVWGQGTTVTVSS
notes: as for B2
B4: anti-CD123 scFv-C17 (scFv)
scFv: QSALTQPASVSGSLGQSITISCTGTSSDVGTYDYVSWYQQHPGKAPKLMIYDVTYRPSGVSHRFSGSKSGNTASLTISGLQADDEADYYCQQYNNWPPRYTFGQGTKVEIKGGGGSGGGGSGGGGSQVQLVQSGAEVEKPGASVKLSCTASGYNFNSYYMHWVRLTPGQGLEWMGLINPTNGRTTYAQKFQGRVTMTGDTSTRTVYLALSSLRSEDSALYYCARGSPPHIFDPDFDYWGQGTLVTVSS
notes: as for B2
B5: anti-CD123 scFv-C9 (scFv)
scFv: QSVLTQPPSASGTPGQRVTISCSGSNSNIENNYVYWYQHLPGTAPKRLIYQNNQRPSGVPDRFSGSKSGTSASLAISGLRSEDEADYYCSAWDDSLSAWVFGGGTELTVLGGGGSGGGGSGGGGSEVHLVESGGGLVQPGRSLRLSCTASGFTFGDYAMNWVRQAPGKGLEWVGFIRSKASGGTTDYAASVKGRFTISRDDSKSIAYLQMNSLKTEDTAVYYCTRALRGYSYGLFDYWGQGTLVTVSS
notes: as for B2
B6: anti-CD123 scFv-C15 (scFv)
scFv: DIQLTQSPSTLSASVGDRVTISCRASQSISSWLAWYQHKPGKAPKLLIYKTSALEDGVPSRFSGSGSGTEFTLTISSLQPDDFATYFCLHYGSYTFGQGTKVDIKGGGGSGGGGSGGGGSEVQLVESGGGLVNPGGSLRLSCEASGFTFSDYYISWIRQAPGKGLEWISYISGSSTYTDFADSVKGRFTISRDNAKNTVFLQMNSLRAEDTAVYYCARDRRGRFDPWGQGTLVTVSS
notes: as for B2
B7: anti-CD123 scFv-C4 (scFv)
scFv: QSALTQPPSASGTPGQRVTISCSGSSSNIGSNYVNWYQQLPGTAPKLLIYRNNQRPSGVPDRFSGSKSGTSASLAISGLRSEDEADYYCAAWDDSLSGHGVFGTGTELTVLGGGGSGGGGSGGGGSQVQLVQSGPEVKKPGASVKVSCKASGYDFIRYYMNWVRQAPGQGPEWMGAIDPSDGDTTYGQKFQGRVTLTRDTFTSTVYMELSSLRSEDTAVYYCARDWELTNSYGLDVWGQGTTVTVSS
notes: as for B2
B8: anti-CD123 scFv-C11 (scFv)
scFv: QSVVTQPPSASGTPGQRVTISCSGSSSNIGSNYVYWYQQLPGTAPKLLIYRNNQRPSGVPDRFSGSKSGTSASLAISGLRSEDEADYYCAAWDDSLSGYVFGTGTKLTVLGGGGSGGGGSGGGGSEVQLVESGGGLVQPGRSLRLSCTASGFTFGDYAMSWVRQAPGKGLEWVGFIRSKAYGGTTEYAASVKGRFTISRDDSKSIAYLQMNSLKTEDTAVYYCTRDIGYYGSGSYSPFDYWGQGTLVTVSS
notes: On mRNA-electroporated T cells as CAR; also called anti-CD123-C11
B9: anti-CD123 scFv-C2 (scFv)
scFv: QSVVTQPPSVSAAPGQKVTISCSGSSSNIGNNYVSWYQQFPGTAPKLLIYDNNKRPSGIPDRFSGSKSGTSGTLGITGLQTGDEADYYCVTWDTSLSAGVFGGGTKLTVLGGGGSGGGGSGGGGSQITLKESGGGLVKPGGSLRLSCAASGFTFSNAWMSWVRQAPGKGLEWVGRIKSKTDGGTTDYAAPVKGRFTISRDDSKNTLYLQMNSLKTEDTAVYYCTTDPHGYYYGMDVWGQGTTVTVSS
notes: as for B2
B10: anti-CD123 scFv-C1 (scFv)
scFv: QSALTQPASVSGSPGQSITISCTGTSSDIGAYNYVSWYQQHPGKAPKLIIYDVSHRPSGVSNRFSGSKSGNTASLTISGLQSEDEADYYCSSDTNNNTLVFGVGTKLTVLGGGGSGGGGSGGGGSEVHLVESGGGVVQPGRSLRLSCAASGFTFSSYGMHWVRQAPGKGLEWVAVIWYDGSNKYYADSVKGRFTISRDNSKNTLYLQMNSLRAEDTAVYYCARDRDGFFLPMYYFDYWGQGTLVTVSS
notes: On mRNA-electroporated T cells as CAR (hinge to CD3-zeta)
B11: anti-CD123 scFv-C14 (scFv)
scFv: DIRMTQSPSSLSASVGDRVTITCQASQDITNYLNWYHQKPGKAPKLLIYDASNLETGVPSRFSGGGSGTDFTFTISSLQSEDIGTYYCQQYDDLPLTFGGGTKVEIKGGGGSGGGGSGGGGSQVQLQESGPGLVKPSETLSLTCTVSGGSISSSSHYWGWIRQPPGKGLEWIGSIYYSGSTYYNPSLKSRVTISVDTSKNQFSLKLSSVTAADTAVYYCARRVWVWPTYGMDVWGQGTTVTVSS
notes: as for B2
B12: anti-CD123 scFv-C13 (scFv)
scFv: DVVMTQTPLSLPVTLGQPASISCRSSQGLVFSDGVTYLNWFQQRPGQSPRRLIYKVSNRDSGVPDRFSGSGSGTDFTLKISRVEAEDVGIYYCMQGTHWPHTFGQGTKLEIKGGGGSGGGGSGGGGSEVQLVESGGGLVKPGGSLRLSCAASGFTFSSYSMNWVRQAPGKGLEWVAFISHDASKKFYADSVKGRFTLSRDNSKNTLYLEMNSLGAEDTALYYCGRDRNWGFSDFWGQGTLVTVSS
notes: as for B2
B13: anti-CD123 scFv-C3 (scFv)
scFv: AIQMTQSPSSLSASVGDRVTITCRASQGIGTYLAWFQQKPGKAPKSLIYAASNLQSGVPSKFSGSGSGTDFTLTISNLQPEDFATYYCQQYKGYPLTFGGGTKLEIKGGGGSGGGGSGGGGSQVQLVQSGAEVKKPGSSVKVSCKASGGTFSSYAISWVRQAPGQGLEWMGGIIPIFGTANYAQKFQGRVTITADESTSTAYMELSSLRSEDTAVYYCARDSGWFGPRYYFDYWGQGTLVTVSS
notes: as for B2
B14: anti-CD123 scFv-C5 (scFv)
scFv: NFMLTQPHSVSESPGKTVTLSCTRSSGSIAGSYVQWYQQRPGSSPTTVIFQDNQRPSGVPDRFSGSIDKSSNSASLTISGLKTEDEADYYCQSYDSNNQVFGGGTKLTVLGGGGSGGGGSGGGGSEVHLVESGGGVVRPGGSLRLSCAASGFTFGDYGMSWVRQAPGKGLEWVSGINWNGGRTGYADSVKGRFTISRDNAKNSLYLQMNSLRAEDTALYYCARARGSGSYFGYMDVWGKGTTVTVSS
notes: On mRNA-electroporated T cells as CAR; also called anti-CD123-C5
B15: anti-CD123 scFv-C16 (scFv)
scFv: QSVVTQPPSASGTPGQRVTISCSGSSSNIEGNTVSWYQQFPGAAPKLLIYSNSYRASGVPDRFSGSKSGTSASLAISELQSEDEADYYCSAWDDSLNGPVFGGGTELTVLGGGGSGGGGSGGGGSQVQLQESGGGLVQPGGSLRLSCAASGFTFSSYSMNWVRQAPGKGLEWVSYISSSSSTIYYADSVKGRFTISRDNAKNSLYLQMNSLRAEDTAVYYCARDIYGDWDYYYYGMDVWGQGTTVTVSS
notes: as for B2
B16: anti-CD123 scFv-C10 (scFv)
scFv: SYELTQPPSVSVAPGKTARITCGGNNIGSKSVHWYQQKPGQAPVLVVYDDSDRPSGIPERFSGSNSGNTATLTISRVEAGDEADYYCQVWDSSSDHWVFGGGTKLTVLGGGGSGGGGSGGGGSQVQLVQSGAEVKKPGSSVKVSCKASGGTFSSYAISWVRQAPGQGLEWMGGIIPIFGTANYAQKFQGRVTITADESTSTAYMELSSLRSEDTAVYYCAREKWGYYGDYYYGMDVWGQGTTVTVSS
notes: as for B2

Target: T1, CD28 (detection antigen of the BLI assay) (human, UniProt P10747 19-152, limits assumed)
T1 construct: also called the antigen
Test: BLI (GATOR); antibody loaded at 30 nM, antigen 300-37.5 nM
From the text: The affinity kinetics of the humanized antibodies were detected using biolayer interferometry (BLI). The experimental procedures were as follows: [0533] 1. GATOR instrument was run, and the Kinetics experimental mode was selected. [0534] 2. The analysis program was run according to Table 5

Binder | Kd [nM] | koff [s⁻¹] | kon [M⁻¹ s⁻¹]
B1 | 11.5 | 0.00101 | 87800

Target: T2, CD123-Fc recombinant protein (human, UniProt P26951 19-305)
T2 construct: construct not described; not shown: Fc part
T2 sequence (looked up): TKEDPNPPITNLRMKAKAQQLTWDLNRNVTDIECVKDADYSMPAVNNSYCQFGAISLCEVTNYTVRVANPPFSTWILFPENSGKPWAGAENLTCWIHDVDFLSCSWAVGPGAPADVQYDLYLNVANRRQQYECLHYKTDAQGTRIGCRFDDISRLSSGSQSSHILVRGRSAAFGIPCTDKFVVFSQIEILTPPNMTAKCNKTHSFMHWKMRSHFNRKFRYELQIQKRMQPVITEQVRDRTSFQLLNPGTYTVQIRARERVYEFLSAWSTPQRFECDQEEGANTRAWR
Test: flow cytometry of T cells electroporated with CAR mRNA, stained with CD123-Fc + PE-anti-hIgG-Fc; Mock 1.68
Procedure: The CD123 CAR mRNAs obtained in Example 35 above were each introduced into T cells by electroporation according to the following procedures: T cells were collected, washed with the Opti-MEM medium, and resuspended at 1×10e⁷/mL with the Opti-MEM medium; 10 μg of RNA and 100 μL of T cells were aliquoted, mixed well, and electroporated under the following parameters (BTX machine): 500 V, 0.7 ms; the cells were then transferred to a pre-warmed medium and cultured at 37° C. The binding of CD123 CART cells to the CD123-Fc recombinant protein was detected by FACS staining. […] Empty vector (Mock) was a control T cell without CAR molecule. A549 tumor cells were electroporated with different amounts of CD123 mRNA. The electroporation procedure was the same as described above, and only the parameters were changed, with the parameters 300 V, 0.5 ms used. CD123 expression in A549 tumor cells was detected by FACS staining of isotype or anti-CD123 antibodies and A549 cells electroporated with different amounts of CD123 mRNA. […] The cytotoxicity of CD123 CART cells against tumor cells was detected in an in vitro cytotoxicity assay. Tumor cells expressing EGFP or EGFP-A549 cells electroporated with different amounts of tumor antigen were seeded at 3000 cells/100 μL/well into a flat-bottom 96-well plate; CART cells were diluted to a proper concentration and seeded to the 100 μL/well tumor cells according to different E/T ratios (e.g., 10:1, 3:1, or 1:1), and the co-culture plate was placed into the IncuCyte S3 machine and scanning parameters were set. After scanning for 3 days, the total green object integrated intensity (GCU×μm²/well) was analyzed to calculate the killing efficiency.

Binder | percent of cells in the CD123-Fc positive gate [%]
B2 | 87.8
B3 | 93.3
B4 | 97.5
B5 | 94
B6 | 97.3
B7 | 93.8
B8 | 38
B9 | 81.7
B10 | 53.6
B11 | 85.4
B12 | 85.7
B13 | 84.7
B14 | 79.3
B15 | 94.2
B16 | 32.3
